Experimental data reported in patent publication US20120076797A1, “Modulation of kit signaling and hematopoietic cell development by IL-4 receptor modulation” (priority 2010, published 2012).
“Also recorded” adds a separate entry of the source.

Columns and labels:
Format in all cases: cell-based
[1] = test system: IL-4R (IL-4Rα and γc subunits); assay: KL stimulation of M07e cells; immunoprecipitation of IL-4R subunits and phosphotyrosine immunoblotting; settings: growth factor- and serum-deprived 12 hours, 250 ng/ml recombinant human KL, no IL-4
Procedure: (§1) Cell culture. M07e cells (DSMZ, Braunschweig, Germany) were cultured in RPMI-1640 (Invitrogen/Gibco, Carlsbad, Calif.) with 10% fetal calf serum (FCS; Omega Scientific, Tarzana, Calif.) in the presence of human IL-3 (20 ng/ml; Biosource, Camarillo, Calif.) and human IL-4 (20 ng/ml; R&D Systems Inc, Minneapolis, Minn.). For stimulation of Kit with Kit ligand (KL), M07e cells were growth factor—as well as serum-deprived for 12 hours prior to stimulation with 250 ng/ml of recombinant human KL (Biosource, Camarillo, Calif.).
(§2) Immunoprecipitation and immunoblotting. Immunoprecipitation and immunoblotting were performed as reported previously (Mani, M. et al. Blood 114, 2900-2908 (2009)). Following stimulation with KL, cells were collected in ice-cold PBS containing 1 mM sodium ortho-vanadate (Sigma, St. Louis, Mo.), resuspended at a density of 1×10^7-2×10^7 cells/ml in lysis buffer containing 10 mM Tris-HCl (pH7.4), 150 mM NaCl, 20 mM sodium phosphate (pH7.4), 10 mM sodium pyrophosphate (pH7.4), 5 mM EDTA, 1 mM sodium ortho-vanadate, 1 mM glycerophosphate (Sigma) and 1% Triton X-100, and lysed. Protease inhibitors (Complete Protease Inhibitor Cocktail, Roche, Indianapolis, Ind.) were added according to manufacturer's recommendations. Post-nuclear supernatants were subjected to one round of pre-clearing with Protein A Sepharose (Amersham/Pharmacia, Piscataway, N.J.). […]

Kit = target: T1, Kit (Homo sapiens, UniProt P10721); assay: KL stimulation of M07e cells; phosphorylation of Kit; settings: 250 ng/ml recombinant human KL
T1 construct: M07e cells are known to express both Kit and IL-4R; host or cells: M07e (human megakaryoblastic cell line)
T1 sequence (P10721 26-976): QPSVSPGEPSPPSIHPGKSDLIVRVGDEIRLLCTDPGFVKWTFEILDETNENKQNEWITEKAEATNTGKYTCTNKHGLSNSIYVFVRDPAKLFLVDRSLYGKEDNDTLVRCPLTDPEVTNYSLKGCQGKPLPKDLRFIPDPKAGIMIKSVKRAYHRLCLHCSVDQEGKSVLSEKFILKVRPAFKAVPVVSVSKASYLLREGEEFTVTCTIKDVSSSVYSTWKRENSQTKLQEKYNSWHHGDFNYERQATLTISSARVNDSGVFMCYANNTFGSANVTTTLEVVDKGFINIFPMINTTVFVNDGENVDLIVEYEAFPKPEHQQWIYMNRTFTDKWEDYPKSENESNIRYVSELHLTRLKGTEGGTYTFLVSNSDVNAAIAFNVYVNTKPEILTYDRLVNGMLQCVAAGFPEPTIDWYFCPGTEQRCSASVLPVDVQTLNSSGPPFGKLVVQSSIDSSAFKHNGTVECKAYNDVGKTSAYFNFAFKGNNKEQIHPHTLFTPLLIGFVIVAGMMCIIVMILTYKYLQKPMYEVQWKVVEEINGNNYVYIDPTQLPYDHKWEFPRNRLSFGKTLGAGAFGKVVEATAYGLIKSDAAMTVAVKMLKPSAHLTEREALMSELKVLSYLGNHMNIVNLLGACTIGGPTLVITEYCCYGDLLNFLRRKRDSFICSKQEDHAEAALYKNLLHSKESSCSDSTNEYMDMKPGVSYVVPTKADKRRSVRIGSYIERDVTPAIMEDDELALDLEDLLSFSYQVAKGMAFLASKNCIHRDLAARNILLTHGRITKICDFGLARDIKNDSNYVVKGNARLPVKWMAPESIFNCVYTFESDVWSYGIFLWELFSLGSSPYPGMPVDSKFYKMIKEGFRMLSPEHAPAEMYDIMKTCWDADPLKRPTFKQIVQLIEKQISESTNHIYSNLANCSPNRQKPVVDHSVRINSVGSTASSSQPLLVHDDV
Procedure: as §1, §2

[2] = test system: murine HSC (Lin-Sca-1+Kit+); IL-4R/STAT6; assay: Intracellular phospho-STAT6 analysis (Phospho-Flow) of murine HSC after IL-4 stimulation; settings: murine bone marrow Lin-Sca-1+Kit+ HSC, 1 ng/ml recombinant mouse IL-4, 15 min
Description: Intracellular phospho-STAT6 analysis. Cells derived from c-Kit(BAC)-EGFP mice that are transgenic for a bacterial artificial chromosome expressing EGFP under the control of the Kit promoter were used instead of anti-Kit antibodies (Tallini, Y. N. et al. Proc Natl Acad Sci USA 106, 1808-1813 (2009)). Freshly isolated murine bone marrow mononuclear cells were suspended in cold RPMI-1640 containing 10% FBS and stained with PE-CY7 conjugated anti-mouse Sca-1 (BD Biosciences, San Jose, Calif., Cat 558162) and PE conjugated anti-mouse lineage cocktail (Biolegend, San Diego, Calif. Cat: 78035) at 4° C. for 60 min. The cells were washed with cold RPMI-1640 containing 10% FBS and resuspended in pre-warmed RPMI-1640 containing 10% FBS at concentration of 5-10 million cells/ml. Cells were transferred as 0.5 ml aliquots into flow cytometry test tubes (BD Biosciences, Falcon 2052), rested at 37° C. for 1 hr and stimulated with 1 ng/ml of recombinant mouse IL-4 (Invitrogen, Cat: PMC 0045) for 15 min. Cells were fixed by adding 25 μl of 32% paraformaldehyde (EM grade, Electron Microscopy Sciences, Hatfield, Pa., Cat: 15714) at room temperature for 10 min. […] Samples were washed (centrifugation at 1800 rpm for 5 min) once with staining buffer and analyzed on an FACS Aria II (BD Biosciences). The results were analyzed using Flow Jo software.

Molecule	time to tyrosine phosphorylation of IL-4Rα and γc subunits of IL-4R after KL treatment [1] [min]	phosphorylation of Kit after KL stimulation (Kit)	STAT6 phosphorylation in response to IL-4 stimulation [2]
KL: recombinant human Kit ligand (Biosource), ligand of the Kit receptor, used to stimulate M07e cells	≤ 5	rapid phosphorylation of Kit	–
IL-4: recombinant mouse interleukin 4 (Invitrogen), cognate ligand of IL-4R, used to stimulate murine HSC (protein) HIHGCDKNHLREIIGILNEVTGEGTPCTEMDVPNVLTATKNTTESELVCRASKVLRIFYLKHGKTPCLKKNSSVLMELQRLFRAFRCLDSSISCTMNESKSTSLKDFLESLKSIMQMDYS	–	–	STAT6 phosphorylation was observed; also recorded: STATE phosphorylation
